Assay results published in US20180155451A1 (published 2018).

How the values were obtained:
FcγRIa = target: T1, FcγRIa (human, UniProt P12314 16-292); assay: SPR (Biacore), antibody captured, FcγR as analyte; binding as % of GpH7-A5/GpH7-B3/GpL16-k0
T1 construct: extracellular domain; also called FcgRI; 1a; not shown: His tag at the C terminus

FcγRIIb = target: T2, FcγRIIb (human, UniProt P31994 43-217); assay: as above
T2 construct: extracellular domain; also called FcgRIIb; 2b; not shown: His tag at the C terminus
T2 sequence (looked up): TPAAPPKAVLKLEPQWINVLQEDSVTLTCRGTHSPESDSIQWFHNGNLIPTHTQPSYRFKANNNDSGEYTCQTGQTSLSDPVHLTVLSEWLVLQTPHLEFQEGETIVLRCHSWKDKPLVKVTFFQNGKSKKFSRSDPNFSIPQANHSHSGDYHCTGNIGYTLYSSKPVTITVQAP

[1] = target: T3, FcγRIIIa extracellular domain with C-terminal His tag (human, UniProt P08637 17-208); assay: SPR (Biacore), antibody captured on antigen-peptide chip, FcγR analyte, relative binding
T3 construct: extracellular domain; also called 3a; FcgRIIIa
T3 sequence (P08637 17-208): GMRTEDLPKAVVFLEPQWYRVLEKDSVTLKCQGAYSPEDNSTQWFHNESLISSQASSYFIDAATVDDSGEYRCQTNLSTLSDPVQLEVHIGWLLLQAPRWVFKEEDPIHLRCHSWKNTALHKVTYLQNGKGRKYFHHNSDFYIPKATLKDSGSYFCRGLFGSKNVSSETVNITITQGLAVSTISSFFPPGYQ

[2] = target: T4, FcγRIa extracellular domain with C-terminal His tag (human, UniProt P12314 16-292); assay: SPR (Biacore), antibody captured via antigen peptide, FcγR as analyte; binding relative to GpH7-A5/GpH7-B3/GpL16-k0 = 100
T4 construct: extracellular domain; Soluble receptor expressed in FreeStyle293 cells, used as analyte in Biacore; also called FcgRI; CD64; not shown: His tag at the C terminus

[3] = target: T5, FcγRIIb extracellular domain with C-terminal His tag (human, UniProt P31994 43-217); assay: as above
T5 construct: extracellular domain; Soluble receptor expressed in FreeStyle293 cells, used as analyte in Biacore; also called FcgRIIb; CD32B; not shown: His tag at the C terminus
T5 sequence (looked up): T2 sequence (looked up)

[4] = target: T6, FcγRIIIa extracellular domain with C-terminal His tag (human, UniProt P08637 17-208); assay: SPR (Biacore), antibody captured on antigen peptide chip, FcγR as analyte; relative binding amount
T6 construct: extracellular domain; also called FcgRIIIa; 3a; not shown: His tag at the C terminus
Description: (§1) Analysis of interaction between objective antibody and the FcγR was carried out using Biacore T100 (GE Healthcare). HBS-EP+ (GE Healthcare) was used as the running buffer, and the measurement temperature was set to 25° C. Chips produced by immobilizing the antigen peptide by the amine coupling method to a Series S Sencor Chip CM5 (GE Healthcare), or alternatively, chips produced by allowing preliminarily biotinylated antigen peptides to interact with and immobilize onto a Series S Sensor Chip SA (certified) (GE Healthcare) were used. Antibodies of interest were captured onto an antigen peptide-immobilized chip, and allowed to interact to each FcγR diluted with running buffer. To regenerate and repeatedly use the chip, the antibodies captured on the chip were washed off by reacting 10 mM glycine-HCl, pH 1.5.
(§2) The FcγR-binding activity of each antibody was assessed primarily using as an indicator the FcγR-binding activity and dissociation constant for FcγR.
T6 sequence (P08637 17-208): as above

[5] = target: T7, FcγRIIb extracellular domain with C-terminal His tag (human, UniProt P31994 43-217); assay: as above
T7 construct: extracellular domain; also called FcgRIIb; 2b; not shown: His tag at the C terminus
T7 sequence (looked up): T2 sequence (looked up)
Description: as §1, §2

T1 sequence (P12314 16-292): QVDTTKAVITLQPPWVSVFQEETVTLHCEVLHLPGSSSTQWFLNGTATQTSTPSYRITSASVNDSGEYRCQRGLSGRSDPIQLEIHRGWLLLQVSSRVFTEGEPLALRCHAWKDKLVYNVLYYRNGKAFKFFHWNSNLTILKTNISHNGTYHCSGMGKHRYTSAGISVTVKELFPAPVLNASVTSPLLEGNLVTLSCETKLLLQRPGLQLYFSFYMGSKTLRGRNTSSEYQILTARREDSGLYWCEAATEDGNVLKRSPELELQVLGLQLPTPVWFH
T4 sequence (P12314 16-292): as above

B1: GpH7-A5/GpH7-B3 variant P331_10E/GpL16-k0 (antibody, human IgG1, kappa)
heavy 1: not shown
heavy 2: not shown
light: DIVMTQSPLSLPVTPGEPASISCQASESLVHSNRNTYLHWYLQKPGQSPQLLIYKVSNRFSGVPDRFSGSGSGTDFTLKISRVEAEDVGVYYCSQNTHVPPTFGQGTKVEIERTVAAPSVFIFPPSDEQLKSGTASVVCLLNNFYPREAKVQWKVDNALQSGNSQESVTEQDSKDSTYSLSSTLTLSKADYEKHKVYACEVTHQGLSSPVTKSFNRGEC
notes: heterodimerized IgG1; alteration in the GpH7-B3 H chain only; also called He Ab
B1 was tested, and the He/Con_1a (FcγRIa) was 95 % of control and the He/Con_2b (FcγRIIb) was 116 % of control.

B2: GpH7-B3 variant S337_01G/GpL16-k0 (homodimerized antibody, Ho Ab) (antibody, human IgG1, kappa)
heavy: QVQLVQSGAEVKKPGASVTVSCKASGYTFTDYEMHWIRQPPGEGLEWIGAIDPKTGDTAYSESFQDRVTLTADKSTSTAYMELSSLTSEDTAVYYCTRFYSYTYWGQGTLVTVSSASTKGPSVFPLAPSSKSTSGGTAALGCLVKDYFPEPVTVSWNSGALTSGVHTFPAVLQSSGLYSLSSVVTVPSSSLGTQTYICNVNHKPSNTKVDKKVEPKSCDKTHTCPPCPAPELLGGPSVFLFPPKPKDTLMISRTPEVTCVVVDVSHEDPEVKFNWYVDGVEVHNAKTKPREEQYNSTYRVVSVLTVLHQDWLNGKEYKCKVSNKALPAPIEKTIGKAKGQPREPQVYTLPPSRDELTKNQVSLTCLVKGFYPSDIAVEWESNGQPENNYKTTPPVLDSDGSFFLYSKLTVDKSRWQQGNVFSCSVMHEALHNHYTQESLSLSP
light: B1 light
notes: Mutation in both H chains; also called S337_01G Ho Ab
In the case of B2, the Ho/Con_3a [1] is reported as 108 % of GpH7-B3/GpL16-k0 (=100).

B3: GpH7-B3 variant S239_18N/GpL16-k0 (homodimerized antibody, Ho Ab) (antibody, human IgG1, kappa)
heavy: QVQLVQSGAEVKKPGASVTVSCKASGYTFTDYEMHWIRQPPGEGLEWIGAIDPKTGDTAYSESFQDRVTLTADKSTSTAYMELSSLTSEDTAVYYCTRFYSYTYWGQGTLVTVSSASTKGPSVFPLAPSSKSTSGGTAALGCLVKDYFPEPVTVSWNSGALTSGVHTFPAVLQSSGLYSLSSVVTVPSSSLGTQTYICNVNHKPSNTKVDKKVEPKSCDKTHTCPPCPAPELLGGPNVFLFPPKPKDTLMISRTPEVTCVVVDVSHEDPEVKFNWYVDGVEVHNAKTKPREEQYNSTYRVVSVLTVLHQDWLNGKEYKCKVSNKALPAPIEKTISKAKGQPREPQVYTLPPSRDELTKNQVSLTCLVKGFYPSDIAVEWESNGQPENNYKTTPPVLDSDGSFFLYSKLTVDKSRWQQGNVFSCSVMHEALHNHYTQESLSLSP
light: B1 light
notes: Mutation in both H chains; also called S239_18N Ho Ab
In the case of B3, the Ho/Con_3a [1] is reported as 116 % of GpH7-B3/GpL16-k0 (=100).

B4: GpH7-A5/GpH7-B3 variant Q295_04F/GpL16-k0 (antibody, human IgG1, kappa)
heavy 1: not shown
heavy 2: not shown
light: B1 light
notes: Heterodimerized anti-glypican-3 IgG1; substitution in only one H chain; also called Q295F; He Ab
For B4, the He/Con_1a [2] was 102 % of control (GpH7-A5/GpH7-B3/GpL16-k0 = 100) and the He/Con_2b [3] was 64.7 % of control (GpH7-A5/GpH7-B3/GpL16-k0 = 100).

B5: GpH7-A5/GpH7-B3 variant P271_10E/GpL16-k0 (antibody, human IgG1, kappa)
heavy 1: not shown
heavy 2: not shown
light: B1 light
notes: Heterodimerized anti-glypican-3 IgG1; the substitution stands in the GpH7-B3 chain only; also called He Ab
For B5, the He/Con_3a [4] was 93.6 % of GpH7-A5/GpH7-B3/GpL16-k0 (=100) and the He/Con_2b [5] was 109 % of GpH7-A5/GpH7-B3/GpL16-k0 (=100).

B6: GpH7-A5/GpH7-B3 variant S298_08L/GpL16-k0 (antibody, human IgG1, kappa)
heavy 1: not shown
heavy 2: not shown
light: B1 light
notes: as for B5
With B6 the He/Con_3a [4] was 73.5 % of GpH7-A5/GpH7-B3/GpL16-k0 (=100) and the He/Con_2b [5] was 108 % of GpH7-A5/GpH7-B3/GpL16-k0 (=100).

B7: GpH7-B3 variant S324_06M/GpL16-k0 (homodimerized antibody, Ho Ab) (antibody, human IgG1, kappa)
heavy: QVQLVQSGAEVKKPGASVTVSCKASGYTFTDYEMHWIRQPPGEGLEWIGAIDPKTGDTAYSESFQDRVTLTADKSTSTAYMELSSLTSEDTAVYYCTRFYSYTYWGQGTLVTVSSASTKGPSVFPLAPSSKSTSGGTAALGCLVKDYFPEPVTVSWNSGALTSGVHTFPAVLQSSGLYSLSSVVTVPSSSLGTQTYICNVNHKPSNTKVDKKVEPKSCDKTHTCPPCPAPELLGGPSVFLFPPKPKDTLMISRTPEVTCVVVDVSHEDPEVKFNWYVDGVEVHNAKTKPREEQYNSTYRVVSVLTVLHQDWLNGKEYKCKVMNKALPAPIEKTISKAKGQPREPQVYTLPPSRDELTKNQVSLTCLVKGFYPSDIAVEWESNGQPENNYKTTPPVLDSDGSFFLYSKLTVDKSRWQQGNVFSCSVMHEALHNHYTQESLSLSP
light: B1 light
notes: Mutation in both H chains; also called S324_06M Ho Ab
For B7, the Ho/Con_3a [1] was 114 % of GpH7-B3/GpL16-k0 (=100).

B8: GpH7-A5/GpH7-B3 variant Q295_07I/GpL16-k0 (antibody, human IgG1, kappa)
heavy 1: not shown
heavy 2: not shown
light: B1 light
notes: Heterodimerized anti-glypican-3 IgG1; substitution in only one H chain; also called Q295I; He Ab
In the case of B8, the He/Con_1a [2] is reported as 103 % of control (GpH7-A5/GpH7-B3/GpL16-k0 = 100) and the He/Con_2b [3] is reported as 84.3 % of control (GpH7-A5/GpH7-B3/GpL16-k0 = 100).

B9: GpH7-A5/GpH7-B3 variant P331_07I/GpL16-k0 (antibody, human IgG1, kappa)
heavy 1: not shown
heavy 2: not shown
light: B1 light
notes: as for B1
With B9 the He/Con_1a (FcγRIa) was 93.4 % of control and the He/Con_2b (FcγRIIb) was 114 % of control.

B10: GpH7-A5/GpH7-B3 variant S267_14T/GpL16-k0 (antibody, human IgG1, kappa)
heavy 1: not shown
heavy 2: not shown
light: B1 light
notes: as for B5
With B10 the He/Con_3a [4] was 45.6 % of GpH7-A5/GpH7-B3/GpL16-k0 (=100) and the He/Con_2b [5] was 104 % of GpH7-A5/GpH7-B3/GpL16-k0 (=100).

B11: GpH7-A5/GpH7-B3 variant Q295_03V/GpL16-k0 (antibody, human IgG1, kappa)
heavy 1: not shown
heavy 2: not shown
light: B1 light
notes: Heterodimerized anti-glypican-3 IgG1; substitution in only one H chain; also called Q295V; He Ab
With B11 the He/Con_1a [2] was 104 % of control (GpH7-A5/GpH7-B3/GpL16-k0 = 100) and the He/Con_2b [3] was 75.7 % of control (GpH7-A5/GpH7-B3/GpL16-k0 = 100).

B12: GpH7-A5/GpH7-B3 variant P331_15Y/GpL16-k0 (antibody, human IgG1, kappa)
heavy 1: not shown
heavy 2: not shown
light: B1 light
notes: as for B1
With B12 the He/Con_1a (FcγRIa) was 96 % of control and the He/Con_2b (FcγRIIb) was 114 % of control.

B13: GpH7-A5/GpH7-B3 variant P271_11K/GpL16-k0 (antibody, human IgG1, kappa)
heavy 1: not shown
heavy 2: not shown
light: B1 light
notes: Heterodimerized anti-glypican-3 IgG1; substitution in only one H chain; also called P271K; He Ab
With B13 the He/Con_1a [2] was 103 % of control (GpH7-A5/GpH7-B3/GpL16-k0 = 100) and the He/Con_2b [3] was 90.2 % of control (GpH7-A5/GpH7-B3/GpL16-k0 = 100).

B14: GpH7-A5/GpH7-B3 variant P271_09D/GpL16-k0 (antibody, human IgG1, kappa)
heavy 1: not shown
heavy 2: not shown
light: B1 light
notes: as for B5
B14 was tested, and the He/Con_3a [4] was 93.1 % of GpH7-A5/GpH7-B3/GpL16-k0 (=100) and the He/Con_2b [5] was 120 % of GpH7-A5/GpH7-B3/GpL16-k0 (=100).

B15: GpH7-A5/GpH7-B3 variant N325_09D/GpL16-k0 (antibody, human IgG1, kappa)
heavy 1: not shown
heavy 2: not shown
light: B1 light
notes: as for B1
For B15, the He/Con_1a (FcγRIa) was 99.9 % of control and the He/Con_2b (FcγRIIb) was 124 % of control.

B16: GpH7-B3 variant S324_09D/GpL16-k0 (homodimerized antibody, Ho Ab) (antibody, human IgG1, kappa)
heavy: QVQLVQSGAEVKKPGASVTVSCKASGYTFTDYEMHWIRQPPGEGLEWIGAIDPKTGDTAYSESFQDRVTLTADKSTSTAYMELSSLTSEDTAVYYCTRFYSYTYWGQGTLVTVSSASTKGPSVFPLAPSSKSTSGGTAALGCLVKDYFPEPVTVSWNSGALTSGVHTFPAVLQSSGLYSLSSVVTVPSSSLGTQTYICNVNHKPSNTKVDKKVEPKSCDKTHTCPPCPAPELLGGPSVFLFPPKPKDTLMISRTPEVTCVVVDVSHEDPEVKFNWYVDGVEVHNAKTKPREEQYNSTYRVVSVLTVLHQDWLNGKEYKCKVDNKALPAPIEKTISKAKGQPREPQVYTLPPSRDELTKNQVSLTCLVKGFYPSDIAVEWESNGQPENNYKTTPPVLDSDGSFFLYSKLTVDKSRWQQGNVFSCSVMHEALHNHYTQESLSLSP
light: B1 light
notes: Mutation in both H chains; also called S324_09D Ho Ab
For B16, the Ho/Con_3a [1] was 101 % of GpH7-B3/GpL16-k0 (=100).

B17: GpH7-A5/GpH7-B3 variant Q295_05P/GpL16-k0 (antibody, human IgG1, kappa)
heavy 1: not shown
heavy 2: not shown
light: B1 light
notes: Heterodimerized anti-glypican-3 IgG1; substitution in only one H chain; also called Q295P; He Ab
In the case of B17, the He/Con_1a [2] is reported as 103 % of control (GpH7-A5/GpH7-B3/GpL16-k0 = 100) and the He/Con_2b [3] is reported as 67.5 % of control (GpH7-A5/GpH7-B3/GpL16-k0 = 100).

B18: GpH7-A5/GpH7-B3 variant P271_14T/GpL16-k0 (antibody, human IgG1, kappa)
heavy 1: not shown
heavy 2: not shown
light: B1 light
notes: Heterodimerized anti-glypican-3 IgG1; substitution in only one H chain; also called P271T; He Ab
B18 was tested, and the He/Con_1a [2] was 102 % of control (GpH7-A5/GpH7-B3/GpL16-k0 = 100) and the He/Con_2b [3] was 95.4 % of control (GpH7-A5/GpH7-B3/GpL16-k0 = 100).

B19: GpH7-A5/GpH7-B3 variant S298_06M/GpL16-k0 (antibody, human IgG1, kappa)
heavy 1: not shown
heavy 2: not shown
light: B1 light
notes: as for B5
With B19 the He/Con_3a [4] was 92.6 % of GpH7-A5/GpH7-B3/GpL16-k0 (=100) and the He/Con_2b [5] was 102 % of GpH7-A5/GpH7-B3/GpL16-k0 (=100).

B20: GpH7-B3 variant S239_10E/GpL16-k0 (homodimerized antibody, Ho Ab) (antibody, human IgG1, kappa)
heavy: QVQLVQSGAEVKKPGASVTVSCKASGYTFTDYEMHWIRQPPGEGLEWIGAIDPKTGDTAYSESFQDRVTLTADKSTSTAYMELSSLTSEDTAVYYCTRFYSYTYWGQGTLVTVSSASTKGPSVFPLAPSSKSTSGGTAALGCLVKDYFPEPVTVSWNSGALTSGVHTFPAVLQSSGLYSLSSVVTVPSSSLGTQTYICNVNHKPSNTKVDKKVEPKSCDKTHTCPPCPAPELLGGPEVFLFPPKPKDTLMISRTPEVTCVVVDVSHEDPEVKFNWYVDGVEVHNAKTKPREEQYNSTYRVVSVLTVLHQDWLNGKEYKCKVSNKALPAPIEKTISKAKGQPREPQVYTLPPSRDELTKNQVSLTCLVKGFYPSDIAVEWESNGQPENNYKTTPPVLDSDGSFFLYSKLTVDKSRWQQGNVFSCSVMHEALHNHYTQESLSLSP
light: B1 light
notes: Mutation in both H chains; also called S239_10E Ho Ab
With B20 the Ho/Con_3a [1] was 252 % of GpH7-B3/GpL16-k0 (=100).

B21: GpH7-B3 variant S298_03V/GpL16-k0 (homodimerized antibody, Ho Ab) (antibody, human IgG1, kappa)
heavy: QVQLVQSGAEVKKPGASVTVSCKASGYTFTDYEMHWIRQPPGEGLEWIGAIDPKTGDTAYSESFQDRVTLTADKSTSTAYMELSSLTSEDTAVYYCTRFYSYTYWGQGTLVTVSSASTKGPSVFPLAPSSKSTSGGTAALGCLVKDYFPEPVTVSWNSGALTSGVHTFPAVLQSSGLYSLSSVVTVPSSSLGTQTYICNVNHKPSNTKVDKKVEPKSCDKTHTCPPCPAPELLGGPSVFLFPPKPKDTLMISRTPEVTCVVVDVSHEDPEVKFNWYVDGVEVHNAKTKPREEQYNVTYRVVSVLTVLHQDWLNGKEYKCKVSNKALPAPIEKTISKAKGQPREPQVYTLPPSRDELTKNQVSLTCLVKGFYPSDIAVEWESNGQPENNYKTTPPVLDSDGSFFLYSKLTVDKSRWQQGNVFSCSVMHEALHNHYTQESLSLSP
light: B1 light
notes: Mutation in both H chains; also called S298_03V Ho Ab
In the case of B21, the Ho/Con_3a [1] is reported as 110 % of GpH7-B3/GpL16-k0 (=100).
